Our source for the inhibition percentage of control of STAT3 phosphorylation in U266 cells, antibody values is patent US20170362317A1.

The assay deals with IL6 receptor on human multiple myeloma U266 cells (human) (UniProt P08887). Nature of the assay: cell-based or functional assay.
Chain of IL6 receptor on human multiple myeloma U266 cells (human) (P08887 20-468): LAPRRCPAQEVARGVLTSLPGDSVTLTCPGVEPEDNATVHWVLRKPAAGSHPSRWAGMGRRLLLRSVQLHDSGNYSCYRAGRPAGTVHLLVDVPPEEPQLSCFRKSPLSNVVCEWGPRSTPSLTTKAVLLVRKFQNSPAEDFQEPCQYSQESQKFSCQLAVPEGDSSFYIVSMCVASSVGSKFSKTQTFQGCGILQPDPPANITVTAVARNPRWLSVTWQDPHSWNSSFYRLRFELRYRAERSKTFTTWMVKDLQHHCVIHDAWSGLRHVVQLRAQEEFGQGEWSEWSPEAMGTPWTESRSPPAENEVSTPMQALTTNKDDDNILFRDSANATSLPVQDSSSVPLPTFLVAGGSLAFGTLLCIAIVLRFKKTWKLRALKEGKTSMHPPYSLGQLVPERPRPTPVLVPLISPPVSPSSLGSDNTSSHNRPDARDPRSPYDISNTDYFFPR

As to “Actemra, an anti-IL6 receptor humanized antibody”, the inhibition percentage of control of STAT3 phosphorylation in U266 cells, antibody at 0.05 µg/ml was 0% and the inhibition percentage of control of STAT3 phosphorylation in U266 cells, antibody at 0.5 µg/ml came out at 17%.
